Experimental data as given in publication PMC3357048 (Nature structural & molecular biology, 2011).

B1: human IgE-Fc (dimer of Cε2-Cε3-Cε4 domains) (domain or fragment)
chain: CSRDFTPPTVKILQSSCDGGGHFPPTIQLLCLVSGYTPGTINITWLEDGQVMDVDLSTASTTQEGELASTQSELTLSQKHWLSDRTYTCQVTYQGHTFEDSTKKCADSNPRGVSAYLSRPSPFDLFIRKSPTITCLVVDLAPSKGTVNLTWSRASGKPVNHSTRKEEKQRNGTLTVTSTLPVGTRDWIEGETYQCRVTHPHLPRALMRSTTKTSGPRAAPEVYAFATPEWPGSRDKRTLACLIQNFMPEDISVQWLHNEVQLPDARHSTTQPRKTKGSGFFVFSRLEVTRAEWEQKDEFICRAVHEAASPSQTVQRAVSVNPGL
modifications: N-linked high-mannose carbohydrate at Asn394

Key:
[1] = target: sFcεRIα W87D (immobilised for SPR) (human) (UniProt P12319); experiment: SPR
[2] = target: the molecule itself; experiment: crystal structure

Molecule | dH [1] [kcal/mol] | stoichiometry N [2]
Fcε3-4 (sub-fragment of IgE-Fc lacking the Cε2 domains) (from UniProt P01854 211-427) (domain or fragment) | -15.2 | 
B1 |  | 2
